Assay results from article PMC10475540, “The teleost fish PepT1-type peptide transporters and their relationships with neutral and charged substrates” (Frontiers in Physiology, 2023).
Peptide text beside a SMILES is read from it.

Assays:
[1] = biological target: T1, zfPepT1b (Danio rerio, UniProt Q7SYE4); assay: two-electrode voltage clamp, transport current, Xenopus oocytes; type: cell-based; settings: 1 mmol/L, pH 7.6, -60 mV
T1 construct: gene slc15a1b; complete ORF in pSPORT1, cRNA-injected Xenopus laevis oocytes
T1 sequence (Q7SYE4 1-718): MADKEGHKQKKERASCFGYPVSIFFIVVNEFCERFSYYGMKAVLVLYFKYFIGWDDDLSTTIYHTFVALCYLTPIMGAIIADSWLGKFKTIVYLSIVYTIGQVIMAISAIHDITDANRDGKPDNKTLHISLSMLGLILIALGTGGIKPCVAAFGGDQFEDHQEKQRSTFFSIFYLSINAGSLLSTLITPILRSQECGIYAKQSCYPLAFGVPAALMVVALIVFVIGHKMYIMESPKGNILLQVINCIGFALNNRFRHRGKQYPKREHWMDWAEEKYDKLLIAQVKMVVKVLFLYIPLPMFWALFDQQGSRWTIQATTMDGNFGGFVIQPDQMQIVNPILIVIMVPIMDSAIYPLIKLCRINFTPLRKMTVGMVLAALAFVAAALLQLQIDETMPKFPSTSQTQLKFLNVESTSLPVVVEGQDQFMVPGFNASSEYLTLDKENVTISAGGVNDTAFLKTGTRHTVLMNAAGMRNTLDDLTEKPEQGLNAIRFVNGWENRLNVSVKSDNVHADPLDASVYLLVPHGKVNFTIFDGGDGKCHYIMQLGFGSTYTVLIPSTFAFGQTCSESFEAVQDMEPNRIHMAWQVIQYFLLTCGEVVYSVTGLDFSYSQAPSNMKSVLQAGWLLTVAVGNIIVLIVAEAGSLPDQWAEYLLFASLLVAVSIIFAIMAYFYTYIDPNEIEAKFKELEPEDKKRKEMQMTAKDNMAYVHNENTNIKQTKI

[2] = substrate: NCC(=O)N[C@@H](CC(=O)O)C(=O)O; assay: as above; type: cell-based, Danio rerio; settings: pH 7.6, -60 mV, 18 degC incubation of oocytes, proton-coupled transport, 18.0 °C
From the text: (§1) two-electrode voltage clamp, transport current, Xenopus oocytes on zfPepT1a

[3] = substrate: NCCCC[C@H](N)C(=O)NCC(=O)O; assay: as above; type: cell-based, Danio rerio; settings: pH 7.6, -60 mV
From the text: as §1

[4] = substrate: NCCCC[C@H](N)C(=O)NCC(=O)O; assay: as above; type: cell-based, Salmo salar; settings: pH 7.6, -140 mV, strongly voltage dependent
[5] = substrate: NCCCC[C@H](N)C(=O)NCC(=O)O; assay: cells, lysate or membranes; settings: pH 7.6, -140 mV, estimate, saturation not reached up to 30 mmol/L

With NCC(=O)N[C@@H](CCC(N)=O)C(=O)O [Gly-Gln] (H-Gly-Gln-OH) the “two-electrode voltage clamp, transport current, Xenopus oocytes” value ([1]; reference substrate) was “Gly-Lys and Lys-Gly currents are significantly reduced in amplitude if compared to those generated by Gly-Gln”.

CSCC[C@H](NC(=O)[C@@H](N)CCCCN)C(=O)O [Lys-Met] was tested, and the “two-electrode voltage clamp, transport current, Xenopus oocytes” value [1] was “in zebrafish PepT1b Lys-Met and Met-Lys show comparable currents”.

B1: zfPepT1a (Danio rerio) (protein)
chain: MPDSKMDETKKKKKKTAECCGYPISIFFIVVNEFCERFSYYGMRAVLVLYFRYFLLWDDDLATSIYHAFVALCYLTPILGAIIADSWLGKFKTIIYLSIVYAVGQVVMAVSTIHDITDANRDGTPDNFTLHIALSMLGLVLIALGTGGIKPCVAAFGGDQFQEHQSRQLNTFFSVFYLCINAGSLLSTLITPVLRAQECGIHTQQQCYPLAFGVPAALMVVSLVVFIAGSGMYTKTAPEGNIMGSVCKCIWFALNNRFRHRSDIYPKREHWMDWAEEKYDKLLIAQIKMVLKVLFLYIPLPMFWTLFDQKGSRWTLQATTMTGDFGGFVLQPDQMQTVNPILILTLVPIMDRIIFPLIKKCGLNFSPLKRMTVGMLFAATAFIAAALVQMEIDKTLPNFPSSSESQLKVVNMHSESLIVTVPSQEPLLIGSFESSPDYITFDQQDIRLAFNTTPEINKDLSLIKGSRQTLIIPSEPAEMYLKEDIKSKPKEGKNAVRFVNGWTAYLNITNLESSLQPSETSNYTLVSQGMRKFTLTDGIQSCEFSRKFGFGSSYTFLIPSDLFSTDCESIKEIEDMQPNSVHMALQIPQYFLITTGEVMFSVTGLQFSYSQAPKNMKSVLQAGWLCTNAVGNIIVLIVAELGKLPKQWAEYVLFASLLVAVSIIFSIMAYFYTYIDPAEIEAEILKQQETDPDKKKKKETLEMEEKENEQEIKQTKI
notes: complete ORF in pSPORT1, cRNA-injected Xenopus laevis oocytes
Work on B1 yielded a K0.5 [2] of 5.89 ± 2.14 mmol/L and a K0.5 [3] of 18.35 ± 3.51 mmol/L.

B2: asPepT1b (Salmo salar) (protein)
chain: MTDIDVKKSKRKVDVCGYPLSIFFIVVNEFCERFSYYGMRAVLVLYFRYFLKWDDDLSTSIYHTFIALCYLTPILGAIVADSWLGKFKTIVYLSIVYTVGQVVMAVSAIHDITDTDRDGTPDNMTFHVAMSMVGLFLIALGTGGIKPCVAAFGGDQFEEHQEKQRSTFFSIFYLSINAGSLLSTVITPILRGQECGIHSQQKCYPLAFGVPAALMVVALIVFIMGSGMYNKTAPKGNIMLEVCKCIGFAVKNRFRHRSKKFPKREHWMDWADEKYDKLLVAQVKMVLKVMFLYIPLPMFWTLFDQQGSRWTLQATTMDGNFGILTVQPDQMQTVNPILILALVPIMDSLVYPLIKKCHLNFTPLKRMTVGMLIAALAFVAAALLQLQIDQTLPKLPQGVAGQVKFLNLNSAPLTLTIDGTIDVSVPAHQVNTGDYLTFDKSVRVVFNKNTSTGTDLILMSQTRRTALVSPTLDMNLVYDLSKKPDDGMNAIRFVNGLGSALNVTLGVGDIAPLAVSNYSLVPQGKAEFTIMNSGGASCLYSIDLGFGSAFTLLIPSTFTIGSPDCWQAIQVVEDIQPNTIHMGWQIPQYFLMTGGEVVFSVTGLEFSYSQAPSNMKSVLQAGWLFTVAVGNIIVLIVAEAAQLPDQWAEYILFASLLVVVCIVFAIMSYFYTYTDPAEIEAEFRQPEHGPERKRDQVEMERKDSDCSKSSKGSDMKKKDSVVEQLNQEVKQSKM
notes: as for B1
For B2, the K0.5 [4] was 0.18 ± 0.01 mmol/L.

B3: asPepT1a (Salmo salar) (protein)
chain: MTDEEVVKKGKSKEVCGYPLSIFFIVVNEFCERFSYYGMRAVLVLYFRYFLRFDDDLATSIYHTFVALCYLTPILGAVVADSWLGKFKTIIYLSIVYAIGQVVMAVSAIHDITDTDRDGTPDNLTLHIVLSMVGLLLIALGTGGIKPCVAAFGGDQFQDHQAKQRSTFFSVFYLCINGGSLLSTIITPILRGQECGIHSQQKCYPLAFGVPAALMVVALVVFIIGSGMYHKTEPQGNIMLDVCKCIGFAVKNRFRHRSSSYPKRTHWMDWAEEKYEKLLIAQIKMVLKVLFLYIPLPMFWTLFDQKGSRWTLQATTMDGNFGSLILQPDQMQTVNPILILTLVPIMDSVVYPLIKKCGLNFTPLRRMTVGMFLAAMAFVAAALVQIQIDKTLPTFPSSSQSQLKLLNMGSIPLTVTLPNNDPFVIEAAKANANYLTFEEESINVSFQSPAISRTISLAKGKRQTLLIPSNLSAPMWEMTDDLMAKPEQGANAIRFVNGMAGAVNVSTFGSIEYSSASNYSLISNGKATFTITNGANTCEYSREFGFGSSYTLLIPSHFAWGLTCSESISGVEDIQPNSFHMGWQIPQYFLITCGEVVFSVTGLEFSYSQAPSNMKAVLQAGWLFTVAIGNFIVLIVAEIAQIEEQWAEFVLFASLLVAVCVIFSIMAYFYTYMDPAEIEAQFTDNGGKEESDKEELQMQKKDVVDHHNEDDEAKQTKM
For B3, the K0.5 [5] was 6.33 ± 0.78 mmol/L.
